Measurements: PMC6561935, “Hsp90 middle domain phosphorylation initiates a complex conformational program to recruit the ATPase-stimulating cochaperone Aha1” (Nature Communications, 2019)
Values joined by “and” are separate entries in the source; they are usually repeats but may differ in a detail not shown here. Equal values may be shown once.

B1: Aha1-C (C-terminal domain of human Aha1) (domain or fragment, UniProt O95433 201-338, looked up)
chain: GVKIPTCKITLKETFLTSPEELYRVFTTQELVQAFTHAPATLEADRGGKFHMVDGNVSGEFTDLVPEKHIVMKWRFKSWPEGHFATITLTFIDKNGETELCMEGRGIPAPEEERTRQGWQRYYFEGIKQTFGYGARLF
notes: Aha1, human, C-terminal domain, amino acids 201-338; source: E. coli, purified
B2: purified Aha1-C (domain or fragment, human, UniProt O95433 201-338, looked up)
chain: GVKIPTCKITLKETFLTSPEELYRVFTTQELVQAFTHAPATLEADRGGKFHMVDGNVSGEFTDLVPEKHIVMKWRFKSWPEGHFATITLTFIDKNGETELCMEGRGIPAPEEERTRQGWQRYYFEGIKQTFGYGARLF
notes: Aha1, human, C-terminal domain, amino acid 201-338; perdeuterated for NMR; source: purified
B3: human Aha1 C-terminal domain (domain or fragment, UniProt O95433 201-338, looked up)
chain: GVKIPTCKITLKETFLTSPEELYRVFTTQELVQAFTHAPATLEADRGGKFHMVDGNVSGEFTDLVPEKHIVMKWRFKSWPEGHFATITLTFIDKNGETELCMEGRGIPAPEEERTRQGWQRYYFEGIKQTFGYGARLF
notes: Aha1, human, C-terminal domain (Aha1-C, amino acid 201-338); the ITC methods speak only of 'Aha1 constructs'; source: purified
B4: purified human Hsp90α-Y313E (natural protein)
chain: not shown
notes: Hsp90α (heat shock protein 90 alpha), human; 2H/13C Ile-labelled for NMR; also called Hsp90-Y313E; Y313E-Hsp90; source: purified
B5: Aha1-N (N-terminal domain of human Aha1) (domain or fragment, UniProt O95433 1-162, looked up)
chain: MAKWGEGDPRWIVEERADATNVNNWHWTERDASNWSTDKLKTLFLAVQVQNEEGKCEVTEVSKLDGEASINNRKGKLIFFYEWSVKLNWTGTSKSGVQYKGHVEIPNLSDENSVDEVEISVSLAKDEPDTNLVALMKEEGVKLLREAMGIYISTLKTEFTQG
notes: Aha1, human, N-terminal domain, amino acids 1-162; source: E. coli, purified
B6: human Aha1 N-terminal domain (domain or fragment, UniProt O95433 1-162, looked up)
chain: MAKWGEGDPRWIVEERADATNVNNWHWTERDASNWSTDKLKTLFLAVQVQNEEGKCEVTEVSKLDGEASINNRKGKLIFFYEWSVKLNWTGTSKSGVQYKGHVEIPNLSDENSVDEVEISVSLAKDEPDTNLVALMKEEGVKLLREAMGIYISTLKTEFTQG
notes: Aha1, human, N-terminal domain (Aha1-N, amino acid 1-162); the ITC methods speak only of 'Aha1 constructs'; source: purified

Tests used:
Hsp90-Y313E [1] = biological target: T1, Hsp90-Y313E (human, UniProt P07900 1-732, Y313E); assay: ITC; with 2 mM AMPPNP in cell and syringe; Hsp90 (30 µM) in the cell, Aha1 constructs (380-450 µM) in the syringe; 20 mM Tris pH 7.5, 100 mM NaCl, 0.5 mM EDTA, 5 mM MgSO4, 1 mM TCEP, 36 °C; three technical repeats; details: both partners purified
T1 construct: Heat shock protein 90 alpha, human, phosphomimetic mutant Y313E; also called Y313E-Hsp90; Hsp90α-Y313E; source: E. coli, purified

[2] = biological target: T2, Human wild-type Hsp90 (Hsp90α) (human, UniProt P07900 1-732); assay: as above; details: both partners purified
T2 construct: Heat shock protein 90 alpha, human; also called Hsp90-wt; WT

Hsp90-Y313E [3] = biological target: T1, Hsp90-Y313E; assay: ITC; without AMPPNP; Hsp90 (30 µM) in the cell, Aha1 constructs (380-450 µM) in the syringe; 20 mM Tris pH 7.5, 100 mM NaCl, 0.5 mM EDTA, 5 mM MgSO4, 1 mM TCEP, 36 °C; three technical repeats; details: both partners purified
[4] = biological target: B4; assay: ITC; Supplementary Table 3, with 2 mM AMPPNP in cell and syringe: Hsp90 30 μM in the cell, Aha1 constructs 380-450 μM in the syringe; 36 °C; 20 mM Tris pH 7.5, 100 mM NaCl, 0.5 mM EDTA, 5 mM MgSO4, 1 mM TCEP; details: both partners purified
[5] = biological target: T3, human Hsp90α Y313E (phosphomimetic mutant) (human, UniProt P07900 1-732, Y313E); assay: ITC; PEAQ-ITC, 36 °C; Hsp90 in the cell (30 μM), Aha1 constructs in the syringe (380-450 μM); 20 mM Tris pH 7.5, 100 mM NaCl, 0.5 mM EDTA, 5 mM MgSO4, 1 mM TCEP; no AMPPNP; three technical repeats; details: both partners purified
T3 construct: Hsp90α, human, with the phosphomimetic substitution Y313E (numbering based on human Hsp90α); also called Hsp90-Y313E; source: purified

human Hsp90α, wild-type [6] = biological target: T4, human Hsp90α, wild-type (human, UniProt P07900 1-732); assay: ITC; PEAQ-ITC, 36 °C; Hsp90 in the cell (30 μM), Aha1 constructs in the syringe (380-450 μM); 20 mM Tris pH 7.5, 100 mM NaCl, 0.5 mM EDTA, 5 mM MgSO4, 1 mM TCEP; 2 mM AMPPNP in cell and syringe; three technical repeats; details: both partners purified
T4 construct: Hsp90α (heat shock protein 90 alpha), human; also called WT; wild-type Hsp90; source: purified

[7] = biological target: T3, human Hsp90α Y313E (phosphomimetic …); assay: as above; details: both partners purified
[8] = biological target: the molecule itself; assay: cross-linking; purified Hsp90 (with or without 10 mM AMPPNP, 10 min on ice) mixed with equimolar Aha1-His, 30 min on ice; 1 mM BDP-NHP (lysine-lysine), 30 min at room temperature; 25 mM HEPES pH 7.3, 100 mM NaCl; LC-MS (ReACT, PRM)
[9] = biological target: T2, Human wild-type Hsp90 (Hsp90α); assay: ITC; without AMPPNP; Hsp90 (30 µM) in the cell, Aha1 constructs (380-450 µM) in the syringe; 20 mM Tris pH 7.5, 100 mM NaCl, 0.5 mM EDTA, 5 mM MgSO4, 1 mM TCEP, 36 °C; three technical repeats; details: both partners purified
human Hsp90α, wild-type [10] = biological target: T4, human Hsp90α, wild-type; assay: ITC; PEAQ-ITC, 36 °C; Hsp90 in the cell (30 μM), Aha1 constructs in the syringe (380-450 μM); 20 mM Tris pH 7.5, 100 mM NaCl, 0.5 mM EDTA, 5 mM MgSO4, 1 mM TCEP; no AMPPNP; three technical repeats; details: both partners purified

Binder	Kd (Hsp90-Y313E [1])	Kd [2]	Kd (Hsp90-Y313E [3])	Kd [5]	Kd (human Hsp90α, wild-type [6])	Kd [7]	further results
B1	2.3 µM	15.6 µM	5.5 µM				
B2							fold reduction of Kd against wild-type Hsp90 (both with AMPPNP) [4]: ~7 fold; fold reduction of Kd with AMPPNP against without AMPPNP [4]: > 2 fold
B3				7.71 µM and 4.59 µM and 4.04 µM and 5.45 µM	17 µM and 13.3 µM and 16.4 µM and 15.6 µM	2.02 µM and 2.27 µM and 2.62 µM and 2.3 µM	
B4							binding result [8]: binds
B5	8.9 µM	4.9 µM	11.2 µM				Kd [9]: 6.8 µM
B6				11.6 µM and 12.2 µM and 9.96 µM and 11.2 µM	5.69 µM and 4.69 µM and 4.25 µM and 4.88 µM	7.97 µM and 8.96 µM and 9.66 µM and 8.86 µM	Kd (human Hsp90α, wild-type [10]): 7.2 µM and 6.1 µM and 7.22 µM and 6.84 µM
